Measurements from patent publication US20110034673A1.

Target: human HB-EGF on cells (membrane type and cell membrane-bound HB-EGF of human cancer cell lines) (human) (UniProt Q99075)
Assay: cell-based or functional assay

Chain of human HB-EGF on cells (membrane type and cell membrane-bound HB-EGF of human cancer cell lines) (human) (Q99075 63-148 limits assumed): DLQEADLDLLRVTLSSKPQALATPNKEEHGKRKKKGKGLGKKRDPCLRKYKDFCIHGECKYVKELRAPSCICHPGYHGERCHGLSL

B1: anti-HB-EGF humanized antibody HV0LV0 (antibody, V domains shown)
VH: QVQLVQSGAEVKKPGASVKVSCKASGYTFTTYGITWVRQAPGQGLEWMGEIFPGSGNTYYNEKFKGRVTITADKSTSTAYMELSSLRSEDTAVYYCARESFSDGYYGYFDYWGQGTLVTVSS
VL: DIVMTQSPDSLAVSLGERATINCKSSQSLLYSTNQKNSLAWYQQKPGQPPKLLIYWASTRESGVPDRFSGSGSGTDFTLTISSLQAEDVAVYYCQQYYRYPLTFGQGTKLEIK
ADCC activity relative to KM3966 (fold of KM3966): 0.1
